Laboratory results: the supplement of paper PMC6757056
± gives the standard deviation of the averaged measurements.

B1: library; a variant is named by its letters at N, in order (parent)
chain: GCUGUCACCGAGAAACUGUGAAGUAUAUCUUAAACCUGGGCACUUAAAAGAUAUAUGGAGUUAGUAGUGCAACCUGCUCGGUCUGAUGAGUCCNNNNNNGGACGAAACAGC

How the values were obtained:
[1] = variants of: B1; test: normalized RNA/DNA level without ligand (relative to sTRSVctl = 100) (log10 (% of sTRSVctl)); HEK293T; ligand: cyclic di-GMP (c-di-GMP-II aptamer); higher = less ribozyme self-cleavage, higher mRNA level; settings: reporter: mCherry (pCS4076), ligand present: no
Outline: (§1)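 Only sequences with at least 100 DNA reads were analyzed, from HEK293T cells transfected with 4 µg per 6-well well of ribozyme switch library plasmids 72 h before RNA extraction with EDTA. Any ligand was added 1 h before transfection. RNA level was defined as RNA over DNA reads, normalized to a spiked-in non-cleaving sequence or to the top sequences, then scaled and log-transformed. The top set was 25 sequences, and the scaling was ×100 followed by log10.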

[2] = variants of: B1; test: normalized RNA/DNA level with ligand (relative to sTRSVctl = 100) (log10 (% of sTRSVctl)); HEK293T; ligand: cyclic di-GMP (c-di-GMP-II aptamer); ligand concentration (+) RNA-Seq: 1 mM; higher = less ribozyme self-cleavage, higher mRNA level; settings: reporter: mCherry (pCS4076), ligand present: yes
Outline: as §1

Variant	normalized RNA/DNA level without ligand (log10) [1]	normalized RNA/DNA level with ligand (log10) [2]
UGCUGA	1.6 ± 0.017	1.8 ± 0.085
UGCUGU	1.748 ± 0.01	1.87 ± 0.1
GGCGGC	1.71 ± 0.021	1.89 ± 0.13
AGCUGA	1.58 ± 0.16	1.72 ± 0.067
AGCUGU	1.667 ± 0.01	1.8 ± 0.073
AGCUGG	1.64 ± 0.043	1.81 ± 0.12
UGCGGA	1.559 ± 0.0066	1.78 ± 0.12
UGCGGU	1.63 ± 0.035	1.8 ± 0.12
UGCGGG	1.81 ± 0.045	1.92 ± 0.067
UGCGGC	1.757 ± 0.0021	1.9 ± 0.12
GGCGCA	1.86 ± 0.064	1.92 ± 0.023
GGCGCG	1.72 ± 0.034	1.83 ± 0.19
GGCGCC	1.79 ± 0.041	1.84 ± 0.083
GGGCCC	1.92 ± 0.07	1.99 ± 0.056
UGGCAA	1.64 ± 0.028	1.8 ± 0.1
UGGCAG	1.847 ± 0.0028	1.93 ± 0.063
UGGCAC	1.72 ± 0.043	1.86 ± 0.024
GGGCAC	1.78 ± 0.042	1.89 ± 0.074
GGGCAA	1.72 ± 0.046	1.8 ± 0.026
GGGCAG	1.823 ± 0.015	1.89 ± 0.045

Variant	normalized RNA/DNA level without ligand (log10) [1]	normalized RNA/DNA level with ligand (log10) [2]
GGGGCA	1.752 ± 0.011	1.88 ± 0.081
GGGGCC	1.85 ± 0.069	1.94 ± 0.13
CGCGGU	1.67 ± 0.02	1.87 ± 0.13
CGCGGC	1.74 ± 0.03	1.87 ± 0.11
CGCGGA	1.446 ± 0.0059	1.62 ± 0.089
CGCGGG	1.67 ± 0.1	1.87 ± 0.047
UGCUAG	1.71 ± 0.031	1.9 ± 0.048
UGCUAU	1.676 ± 0.0088	1.83 ± 0.13
UGCUAC	1.7 ± 0.033	1.85 ± 0.069
UGCUAA	1.695 ± 0.0079	1.87 ± 0.09
UGCGCC	1.79 ± 0.046	1.92 ± 0.094
UGCGCA	1.711 ± 0.014	1.86 ± 0.061
UGCGCG	1.821 ± 0.0063	1.92 ± 0.085
UGCGCU	1.72 ± 0.032	1.89 ± 0.11
AGCUCC	1.81 ± 0.019	1.88 ± 0.089
AGCUCU	1.76 ± 0.096	1.88 ± 0.17
AGCUCA	1.69 ± 0.013	1.81 ± 0.12
CGGAAC	1.45 ± 0.077	1.62 ± 0.14
CGGAAG	1.745 ± 0.015	1.86 ± 0.1
AGCCUG	1.6624 ± 0.00017	1.81 ± 0.15

Variant	normalized RNA/DNA level without ligand (log10) [1]	normalized RNA/DNA level with ligand (log10) [2]
AGCCUC	1.77 ± 0.073	1.87 ± 0.13
AGCGGA	1.52 ± 0.056	1.67 ± 0.086
AGCGGC	1.731 ± 0.0051	1.87 ± 0.074
AGCGGG	1.76 ± 0.043	1.9 ± 0.083
UGCGUA	1.6 ± 0.029	1.81 ± 0.1
UGCGUC	1.75 ± 0.019	1.85 ± 0.13
UGCGUG	1.71 ± 0.084	1.9 ± 0.096
CGGCCC	1.937 ± 0.016	1.94 ± 0.061
CGGCCG	1.81 ± 0.035	1.87 ± 0.11
CGGCCU	1.74 ± 0.018	1.88 ± 0.11
AGCCGU	1.58 ± 0.048	1.77 ± 0.064
AGCCGC	1.75 ± 0.033	1.89 ± 0.13
AGCCGA	1.748 ± 0.014	1.84 ± 0.14
AGCCGG	1.765 ± 0.013	1.865 ± 0.018
CGGGAC	1.669 ± 0.012	1.79 ± 0.085
CGGGAU	1.49 ± 0.05	1.64 ± 0.13
CGGCAG	1.792 ± 0.0062	1.86 ± 0.077
AGGCAC	1.707 ± 0.011	1.84 ± 0.12
